US20230295258A1

Molecular target: IL-12 receptor of human T cells (human) (UniProt P42701)
Test: cell-based or functional assay

Chain of IL-12 receptor of human T cells (human) (Q99665 24-862, chain 2 of 2, other chains not shown): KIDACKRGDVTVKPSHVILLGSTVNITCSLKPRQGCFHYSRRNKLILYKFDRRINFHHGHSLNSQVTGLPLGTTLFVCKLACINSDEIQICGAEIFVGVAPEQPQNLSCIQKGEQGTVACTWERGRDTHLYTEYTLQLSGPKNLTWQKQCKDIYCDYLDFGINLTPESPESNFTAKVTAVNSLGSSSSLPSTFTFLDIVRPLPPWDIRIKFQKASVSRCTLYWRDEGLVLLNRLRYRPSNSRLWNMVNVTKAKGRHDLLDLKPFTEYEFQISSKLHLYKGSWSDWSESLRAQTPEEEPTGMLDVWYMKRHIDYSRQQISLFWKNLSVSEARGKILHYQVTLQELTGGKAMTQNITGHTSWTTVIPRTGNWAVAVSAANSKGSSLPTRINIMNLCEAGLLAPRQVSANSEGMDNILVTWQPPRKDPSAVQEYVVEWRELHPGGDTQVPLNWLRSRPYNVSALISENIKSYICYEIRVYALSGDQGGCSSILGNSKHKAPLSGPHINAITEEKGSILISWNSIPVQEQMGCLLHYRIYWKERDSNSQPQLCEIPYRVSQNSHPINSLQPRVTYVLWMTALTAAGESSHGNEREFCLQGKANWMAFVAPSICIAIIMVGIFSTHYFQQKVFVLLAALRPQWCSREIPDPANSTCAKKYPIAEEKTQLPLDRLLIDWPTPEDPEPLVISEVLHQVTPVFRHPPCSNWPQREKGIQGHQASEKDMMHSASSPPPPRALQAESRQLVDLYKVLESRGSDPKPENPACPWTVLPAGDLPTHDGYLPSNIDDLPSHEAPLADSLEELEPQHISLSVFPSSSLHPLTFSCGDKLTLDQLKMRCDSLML

half maximal effective concentration (EC50) of p-STAT4 (Tyr693) in activated human T cells, AlphaLISA: 8.95 pM
Substance: recombinant human IL-12 (from UniProt P29459 23-219; P29460 23-328) (ligand)
